In patent US20210017257A1 (XBIOTECH, published 2021):

B1: PA7.2-G3 Ab (antibody, human IgG3, kappa)
heavy: EVQLVESRGGLVQPGGSLRLSCAASGFTFSNYAMSWVRQAPGKGLEWVSTISGSDGGTYYADSVKGRFTISRDNSGNTVYLQMNSLREDDTAVYYCARVGLSAPVTFFDFWGQGTLVTVSSASTKGPSVFPLAPCSRSTSGGTAALGCLVKDYFPEPVTVSWNSGALTSGVHTFPAVLQSSGLYSLSSVVTVPSSSLGTQTYTCNVNHKPSNTKVDKRVELKTPLGDTTHTCPRCPEPKSCDTPPPCPRCPEPKSCDTPPPCPRCPEPKSCDTPPPCPRCPAPELLGGPSVFLFPPKPKDTLMISRTPEVTCVVVDVSHEDPEVQFKWYVDGVEVHNAKTKPREEQYNSTFRVVSVLTVLHQDWLNGKEYKCKVSNKALPAPIEKTISKTKGQPREPQVYTLPPSREEMTKNQVSLTCLVKGFYPSDIAVEWESSGQPENNYNTTPPMLDSDGSFFLYSKLTVDKSRWQQGNIFSCSVMHEALHNRFTQKSLSLSPGK
light: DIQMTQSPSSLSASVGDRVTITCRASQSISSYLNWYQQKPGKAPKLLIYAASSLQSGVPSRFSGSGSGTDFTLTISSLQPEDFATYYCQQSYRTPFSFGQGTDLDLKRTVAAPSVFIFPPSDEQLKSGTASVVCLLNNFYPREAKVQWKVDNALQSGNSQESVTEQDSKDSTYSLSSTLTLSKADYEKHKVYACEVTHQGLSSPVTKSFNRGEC
notes: Human IgG3
B2: PA15-G3 Ab (antibody, human IgG3, kappa)
heavy: EVQLVETGGGLVRPGGSLRLSCAASGLTFSTFAMNWVRQAPGKGLEWVSSISGSGGSTYYADSVKGRFTISRDNAKNTVYLQMNSLRAEDTAVYYCARDFNWDSGTMDLWGQGTTVTVSPASTKGPSVFPLAPCSRSTSGGTAALGCLVKDYFPEPVTVSWNSGALTSGVHTFPAVLQSSGLYSLSSVVTVPSSSLGTQTYTCNVNHKPSNTKVDKRVELKTPLGDTTHTCPRCPEPKSCDTPPPCPRCPEPKSCDTPPPCPRCPEPKSCDTPPPCPRCPAPELLGGPSVFLFPPKPKDTLMISRTPEVTCVVVDVSHEDPEVQFKWYVDGVEVHNAKTKPREEQYNSTFRVVSVLTVLHQDWLNGKEYKCKVSNKALPAPIEKTISKTKGQPREPQVYTLPPSREEMTKNQVSLTCLVKGFYPSDIAVEWESSGQPENNYNTTPPMLDSDGSFFLYSKLTVDKSRWQQGNIFSCSVMHEALHNRFTQKSLSLSPGK
light: not shown
notes: Human IgG3
B3: PA21-G3 Ab (antibody, human IgG3, kappa)
heavy: EVQLVESGGGVVQPGGSLRLSCAASGFTFSSYGMHWVRQAPGKGLEWVSGISGDAGSTYYADSVKGRFTISRDNSKNTLYLQMNSLRAEDMAVYYCARVMNYYGPGSAFDYWGQGTLVTVSSASTKGPSVFPLAPCSRSTSGGTAALGCLVKDYFPEPVTVSWNSGALTSGVHTFPAVLQSSGLYSLSSVVTVPSSSLGTQTYTCNVNHKPSNTKVDKRVELKTPLGDTTHTCPRCPEPKSCDTPPPCPRCPEPKSCDTPPPCPRCPEPKSCDTPPPCPRCPAPELLGGPSVFLFPPKPKDTLMISRTPEVTCVVVDVSHEDPEVQFKWYVDGVEVHNAKTKPREEQYNSTFRVVSVLTVLHQDWLNGKEYKCKVSNKALPAPIEKTISKTKGQPREPQVYTLPPSREEMTKNQVSLTCLVKGFYPSDIAVEWESSGQPENNYNTTPPMLDSDGSFFLYSKLTVDKSRWQQGNIFSCSVMHEALHNRFTQKSLSLSPGK
light: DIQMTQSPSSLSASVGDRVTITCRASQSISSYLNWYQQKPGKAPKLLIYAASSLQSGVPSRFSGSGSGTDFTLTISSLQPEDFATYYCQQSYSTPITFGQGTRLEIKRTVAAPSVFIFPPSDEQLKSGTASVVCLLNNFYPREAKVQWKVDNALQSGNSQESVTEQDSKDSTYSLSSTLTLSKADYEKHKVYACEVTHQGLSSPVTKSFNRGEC
notes: Human IgG3
B4: PA27-G3 Ab (antibody, human IgG3, kappa)
heavy: QVQLVESGGGLVQPGGSLRLSCAASGFTFSKYGMSWVRQAPGKGLEWVSTISGSGFTTYYADSVKGRFTISRDDFKNTLYLQMNSLRAEDTAVYYCAKDGWDYEDFFGSWGQGTLVTVSSASTKGPSVFPLAPCSRSTSGGTAALGCLVKDYFPEPVTVSWNSGALTSGVHTFPAVLQSSGLYSLSSVVTVPSSSLGTQTYTCNVNHKPSNTKVDKRVELKTPLGDTTHTCPRCPEPKSCDTPPPCPRCPEPKSCDTPPPCPRCPEPKSCDTPPPCPRCPAPELLGGPSVFLFPPKPKDTLMISRTPEVTCVVVDVSHEDPEVQFKWYVDGVEVHNAKTKPREEQYNSTFRVVSVLTVLHQDWLNGKEYKCKVSNKALPAPIEKTISKTKGQPREPQVYTLPPSREEMTKNQVSLTCLVKGFYPSDIAVEWESSGQPENNYNTTPPMLDSDGSFFLYSKLTVDKSRWQQGNIFSCSVMHEALHNRFTQKSLSLSPGK
light: DIQMTQSPSSLSASVGDRVTITCRASQSISSYLNWYQQKPGKAPKLLIYAASSLQSGVPSRFSGSGSGTEFTLTITNLQPEDFGTYYCQQSYAFPYTFGQGTRLEIKRTVAAPSVFIFPPSDEQLKSGTASVVCLLNNFYPREAKVQWKVDNALQSGNSQESVTEQDSKDSTYSLSSTLTLSKADYEKHKVYACEVTHQGLSSPVTKSFNRGEC
notes: Human IgG3
B5: PA32-G3 Ab (antibody, human IgG3, kappa)
heavy: EVQLVETGGGLAQPGGSLRLSCAASGFIFSDYYMDWVRQAPGKGPEWVASIKADGSETHYVDSVKGRFTISRDNAKNSLYLQMNSLRVEDTAVYYCGRDPGRRFDYWGQGTLVTVSSASTKGPSVFPLAPCSRSTSGGTAALGCLVKDYFPEPVTVSWNSGALTSGVHTFPAVLQSSGLYSLSSVVTVPSSSLGTQTYTCNVNHKPSNTKVDKRVELKTPLGDTTHTCPRCPEPKSCDTPPPCPRCPEPKSCDTPPPCPRCPEPKSCDTPPPCPRCPAPELLGGPSVFLFPPKPKDTLMISRTPEVTCVVVDVSHEDPEVQFKWYVDGVEVHNAKTKPREEQYNSTFRVVSVLTVLHQDWLNGKEYKCKVSNKALPAPIEKTISKTKGQPREPQVYTLPPSREEMTKNQVSLTCLVKGFYPSDIAVEWESSGQPENNYNTTPPMLDSDGSFFLYSKLTVDKSRWQQGNIFSCSVMHEALHNRFTQKSLSLSPGK
light: not shown
notes: Human IgG3
B6: PA37-G3 Ab (antibody, human IgG3, kappa)
heavy: EVQLLESGGGLVQPGGSRRLSCATSGLSFSSYAMNWVRQAPGKGLEWVSAISGSGDITHYADSVKGRLTISRDNSKNTVYLQMNSLRGEDTAVYYCAKGPWLAPGGWFDPWGQGTLVTVSSASTKGPSVFPLAPCSRSTSGGTAALGCLVKDYFPEPVTVSWNSGALTSGVHTFPAVLQSSGLYSLSSVVTVPSSSLGTQTYTCNVNHKPSNTKVDKRVELKTPLGDTTHTCPRCPEPKSCDTPPPCPRCPEPKSCDTPPPCPRCPEPKSCDTPPPCPRCPAPELLGGPSVFLFPPKPKDTLMISRTPEVTCVVVDVSHEDPEVQFKWYVDGVEVHNAKTKPREEQYNSTFRVVSVLTVLHQDWLNGKEYKCKVSNKALPAPIEKTISKTKGQPREPQVYTLPPSREEMTKNQVSLTCLVKGFYPSDIAVEWESSGQPENNYNTTPPMLDSDGSFFLYSKLTVDKSRWQQGNIFSCSVMHEALHNRFTQKSLSLSPGK
light: not shown
notes: Human IgG3

Target: T1, Staphylococcus aureus protein A (SpA), commercial wildtype (Staphylococcus aureus, UniProt A0A0H3K686 37-477, limits assumed)
T1 construct: also called wildtype SpA; antigen
Assay: Bio-Layer Interferometry (ForteBio Octet Red 96), 20 nM antigen; BLI, 20 nM antigen

T1 sequence (A0A0H3K686 37-477 limits assumed): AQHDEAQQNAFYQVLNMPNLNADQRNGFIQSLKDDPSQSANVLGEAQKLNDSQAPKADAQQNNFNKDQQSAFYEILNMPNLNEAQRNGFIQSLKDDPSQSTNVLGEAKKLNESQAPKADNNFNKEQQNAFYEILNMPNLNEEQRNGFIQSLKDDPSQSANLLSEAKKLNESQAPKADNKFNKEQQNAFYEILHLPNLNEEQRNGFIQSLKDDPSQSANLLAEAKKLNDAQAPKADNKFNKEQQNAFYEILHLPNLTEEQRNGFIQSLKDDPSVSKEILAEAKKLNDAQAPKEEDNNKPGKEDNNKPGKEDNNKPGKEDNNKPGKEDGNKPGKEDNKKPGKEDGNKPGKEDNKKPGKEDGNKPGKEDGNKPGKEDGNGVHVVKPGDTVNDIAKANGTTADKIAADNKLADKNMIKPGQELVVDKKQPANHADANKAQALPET

Binder | Kd [pM]
B1 | < 1
B2 | < 1
B3 | < 1
B4 | < 1
B5 | < 1
B6 | < 1
